From the DeepSol protein solubility set

Assay: soluble on expression in E. coli; label from the status in PepcDB or PDB records

Row | Sequence | soluble on expression in E. coli
1 | MATYNGQGFIHDQLDSIRNQTLRPDYVLMRDDGSTDDTVKVVEDYIKEHRLDGWSITSNDKNLGWRLNFRQLLIDVLAYEVDYVFFSDQDDTWYHHKNKMQVDIMEERQDINLLSADIDIKKLSEEATIPNNFKFNGEETISKYPLDFSYHNYRQGWTFCLRKSFVDQVMTFYSDNLILSHDNLFAGVSGVIGSGYNLNRSVGEHKRHAENASGNILNMSSSYERHLQELYFVLSYYIILVPFLEKSSSSQLREAKAYLDFNQQRYKNAQNKDFVAILKQMMTKKRFYDSFSNRIRDLVFLLKDIKRS | not soluble
2 | MAVEVVMPKLGMAMKEGIITSWNIKAGDNVAKGELIASINSEKIETEIEAPADGTILDIAVSEDEGVPPGTVICYIGKPNEKVEVHESTKVEEELTASEVPQNVQHPEPLGKEVTNKQRIKISPVAKKIAKTENLDIRALLGTGPGGRITKVDVLKALEERVAIPEVLEESKVLPVTGMRKAIANRMHASLQNSAQLTLTMKVDVTDLVALHKEIAEVVQKRYDNKLTITDFVSRAVVLALGEHKEMNSAYIDDAIHQFEHVHLGMAVALEKGLVVPAIRFANNLSLVELSKEIKNAAQKARAGNLNSDDMQGTTFTISNLGSFGIEYFTPVLNTPETGILGVGAIEHVPVYKGKKLKKGSMLPLSLTFDHRVLDGAPAAAFLRTIKRYLEEPVTILL | not soluble
3 | MAVGAALPPIPEGAPVLIAGPTASGKSALALEIAERFGGVIVNADASQVYDCWRAISARPSPEEEARAPHLLYGHLPYDAPYSAGHWLREVTPLLDGTARPIIVGGTGLYFTALTEGMADIPATPPDVRAEADTLPLDRLLAGIDPATAAGLDRNNRARVQRAWEVERATGRALHLWQADTPPPPLPLARTVPLVLEVDKLWLWDRIARRFDQMLDQGALDEVAAMAARYDPALPAFKAIGVPELMAHLRGEITLDAARERASIATRQYAKRQRSWFRARMGDWHRLPVGGLEHHHHHH | not soluble
4 | MAVGTEESDFEGWAFPFPGVMLIEDFVTREEEAELVRLMDRDPWKLSQSGRRKQDYGPKVNFRKQKLKTEGFCGLPSFSREVVRRMGLYPGLEGFRPVEQCNLDYCPERGSAIDPHLDDAWLWGERLVSLNLLSPTVLSMCREAPGSLLLCSAPSAAPEALVDSVIAPSRSVLCQEVEVAIPLPARSLLVLTGAARHQWKHAIHRRHIEARRVCVTFRELSAEFGPGGRQQELGQELLRIALSFQGRPVLEHHHHHH | soluble
5 | MAVHTDPFKKYLYKIGNRTSGSDKHIRKFKTFLTISAYSNILVISMIIDQLRIQKNIPDEEFDAIYPFEIRELSERHWTSVFVAKTAADFLCNQRPVKVLDIGSGAGKFCFVGAALHPSSQFHGIDIRENFIQLSNNLKEQYAVANVSFFQQDALEMDLTGYGGIYFFNSFQEKIDPTSVIDHNSKVSVEQYIQYTNHIFNELNKVPAGTKLVTYYSEDFCVPGSFRLLATHFNGELKFYLKEMEPDESDEQLNQQDISEHIDRHTFLSE | not soluble
6 | MAVKGLGEVDQKYDGSKLRIGILHARWNRKIIDALVAGAVKRLQEFGVKEENIIIETVPGSFELPYGSKLFVEKQKRLGKPLDAIIPIGVLIKGSTMHFEYICDSTTHQLMKLNFELGIPVIFGVLTCLTDEQAEARAGLIEGKMHNHGEDWGAAAVEMATKFN | soluble
7 | MAVKVAINGFGRIGRLAFRRIQEVEGLEVVAVNDLTDDDMLAHLLKYDTMQGRFTGEVEVVDGGFRVNGKEVKSFSEPDASKLPWKDLNIDVVLECTGFYTDKDKAQAHIEAGAKKVLISAPATGDLKTIVFNTNHQELDGSETVVSGASSTTNSLAPVAKVLNDDFGLVEGLMTTIHAYTGDQNTQDAPHRKGDKRRARAAAENIIPNSTGAAKAIGKVIPEIDGKLDGGAQRVPVATGSLTELTVVLEKQDVTVEQVNEAMKNASNESFGYTEDEIVSSDVVGMTYGSLFDATQTRVMSVGDRQLVKVAAWYDNEMSYTAQLVRTLAYLAELSK | soluble
8 | MAVKVKKILISQPQPVAGRSPYYDIAQKHGCEVVFRPFIQVESVSAREFRNQKVNILDHSAIIFTARTAIDHFFSLCEELRVTVPETMKYFCVSESVAVYLQKHIVYRKRKIFFGATGKLEDLLTVISKHNKETYFVPLAEEHKHDLLDMLTAKKVSFSPAIMYRTVSNDFGPDEALDHDMILFFSPSGITALLKNFPKFEQGKTKIGAFGPTTAKAVEEAGLRLDLSAPTEQYPSMAMALEDYLNGK | not soluble
